Reference: patent EP1772519A1
“And” between values parts separate entries of the source, which are not always exact repeats. Equal entries are not always repeated.

Biological target: recombinant RB47 (r-RB47), containing only the four RNA recognition motif domains, histidine tag fus (Chlamydomonas reinhardtii)
Test: cell-based or functional assay

recombinant RB60 (r-RB60), histidine tag fusion expressed in E. coli (enzyme)
RNA binding activity of r-RB47 (gel mobility-shift assay) after incubation with GSSG and r-RB60: 5 fold and 6 fold
